In PMC9482650, “Quantitative fragmentomics allow affinity mapping of interactomes” (Nature Communications, 2022):

T1: APBA1_2, Q02410
T1 sequence (Q02410 742-832, limits assumed, looked up): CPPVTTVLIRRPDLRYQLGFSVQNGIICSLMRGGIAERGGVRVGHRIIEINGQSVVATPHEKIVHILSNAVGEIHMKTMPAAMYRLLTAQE

T2: SHANK1, Q9Y566
T2 sequence (Q9Y566 658-767, limits assumed, looked up): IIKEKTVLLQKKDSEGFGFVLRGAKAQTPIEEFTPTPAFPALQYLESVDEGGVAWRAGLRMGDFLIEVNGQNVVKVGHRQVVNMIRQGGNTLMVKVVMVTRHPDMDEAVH

T3: LIN7A, O14910
T3 sequence (O14910 103-200, limits assumed, looked up): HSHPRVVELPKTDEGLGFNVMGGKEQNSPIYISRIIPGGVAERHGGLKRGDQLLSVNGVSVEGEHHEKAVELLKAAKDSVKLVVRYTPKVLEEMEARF

T4: MPDZ_12, O75970
T4 sequence (O75970 1857-1958, limits assumed, looked up): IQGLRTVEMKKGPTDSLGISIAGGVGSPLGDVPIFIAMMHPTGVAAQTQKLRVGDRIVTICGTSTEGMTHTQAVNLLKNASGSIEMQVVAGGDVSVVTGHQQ

T5: CARD11, Q9BXL7
T5 sequence (Q9BXL7 662-765, limits assumed, looked up): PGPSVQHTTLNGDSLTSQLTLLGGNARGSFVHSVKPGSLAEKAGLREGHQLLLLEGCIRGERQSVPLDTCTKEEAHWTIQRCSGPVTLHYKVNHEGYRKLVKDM

T6: NHERF3_4, Q5T2W1
T6 sequence (Q5T2W1 373-468, limits assumed, looked up): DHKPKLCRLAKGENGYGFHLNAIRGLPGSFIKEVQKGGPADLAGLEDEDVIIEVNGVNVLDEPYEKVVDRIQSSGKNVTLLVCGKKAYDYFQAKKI

T7: LNX2_3, Q8N448
T7 sequence (Q8N448 463-564, limits assumed, looked up): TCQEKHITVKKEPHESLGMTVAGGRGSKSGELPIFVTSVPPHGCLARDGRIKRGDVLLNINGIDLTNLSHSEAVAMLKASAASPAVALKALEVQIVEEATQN

T8: RAPGEF6, Q8TEU7
T8 sequence (Q8TEU7 525-625, limits assumed, looked up): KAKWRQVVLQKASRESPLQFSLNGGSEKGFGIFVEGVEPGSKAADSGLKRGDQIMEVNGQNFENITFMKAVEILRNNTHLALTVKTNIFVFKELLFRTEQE

T9: PDZD2_2, O15018
T9 sequence (O15018 329-429, limits assumed, looked up): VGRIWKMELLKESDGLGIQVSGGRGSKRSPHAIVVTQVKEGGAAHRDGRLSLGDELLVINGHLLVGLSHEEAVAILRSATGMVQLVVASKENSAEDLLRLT

B1: CLDN9, O95484 (peptide)
chain: ASGLDKRDYV
B2: KCNT1, Q5JUK3 (peptide)
chain: NPETRDETQL

What follows are binders tested against T1, APBA1_2, Q02410 (assay: holdup assay). Settings: plain residues with an end cap or a label only (N-terminal biotin on a linker: ado-ado).
Set-up: key: below the threshold = too weak to quantify, mostly under pKd 3.1 to 4

Row | pKd | Binder
1 | 4.35 | B1
2 | below the threshold | B2

The binders below were run against LNX1_3, Q8TBB1 (assay: holdup assay). Settings: plain residues with an end cap or a label only (N-terminal biotin on a linker: ado-ado).
Set-up: key: below the threshold = too weak to quantify, mostly under pKd 3.1 to 4

Chain of LNX1_3, Q8TBB1 (Q8TBB1 500-596): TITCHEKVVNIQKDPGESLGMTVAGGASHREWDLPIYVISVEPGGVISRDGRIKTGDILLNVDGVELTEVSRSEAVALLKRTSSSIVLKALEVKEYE

Row | pKd | Binder
3 | below the threshold | B1
4 | below the threshold | B2

The binders below were run against T2, SHANK1, Q9Y566 (assay: holdup assay). Settings: plain residues with an end cap or a label only (N-terminal biotin on a linker: ado-ado).
Set-up: key: below the threshold = too weak to quantify, mostly under pKd 3.1 to 4

Row | pKd | Binder
5 | below the threshold | B1
6 | 4.14 | B2

Each binder was assayed against Inadl_8, Q8NI35 (assay: holdup assay). Settings: plain residues with an end cap or a label only (N-terminal biotin on a linker: ado-ado).
Set-up: key: below the threshold = too weak to quantify, mostly under pKd 3.1 to 4

Chain of Inadl_8, Q8NI35 (Q8NI35 1425-1530): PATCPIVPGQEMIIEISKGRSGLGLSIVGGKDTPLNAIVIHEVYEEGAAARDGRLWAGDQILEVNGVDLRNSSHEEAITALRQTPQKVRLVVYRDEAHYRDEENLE

Row | pKd | Binder
7 | 3.91 | B1
8 | below the threshold | B2

Each binder was assayed against DLG5_1, Q8TDM6 (assay: holdup assay). Settings: plain residues with an end cap or a label only (N-terminal biotin on a linker: ado-ado).
Set-up: key: below the threshold = too weak to quantify, mostly under pKd 3.1 to 4

Chain of DLG5_1, Q8TDM6 (Q8TDM6 617-713): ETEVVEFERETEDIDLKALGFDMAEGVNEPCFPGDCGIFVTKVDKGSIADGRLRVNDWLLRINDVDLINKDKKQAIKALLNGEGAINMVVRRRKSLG

Row | pKd | Binder
9 | below the threshold | B1
10 | below the threshold | B2

The binders below were run against LIMK2, P53671 (assay: holdup assay). Settings: plain residues with an end cap or a label only (N-terminal biotin on a linker: ado-ado).
Set-up: key: below the threshold = too weak to quantify, mostly under pKd 3.1 to 4

Chain of LIMK2, P53671 (P53671 143-248): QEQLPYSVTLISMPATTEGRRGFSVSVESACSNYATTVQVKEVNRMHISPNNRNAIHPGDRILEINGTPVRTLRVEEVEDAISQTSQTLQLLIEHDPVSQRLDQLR

Row | pKd | Binder
11 | below the threshold | B1
12 | below the threshold | B2

The binders below were run against T3, LIN7A, O14910 (assay: holdup assay). Settings: plain residues with an end cap or a label only (N-terminal biotin on a linker: ado-ado).
Set-up: key: below the threshold = too weak to quantify, mostly under pKd 3.1 to 4

Row | pKd | Binder
13 | below the threshold | B1
14 | below the threshold | B2

The binders below were run against Inadl_3, Q8NI35 (assay: holdup assay). Settings: plain residues with an end cap or a label only (N-terminal biotin on a linker: ado-ado).
Set-up: key: below the threshold = too weak to quantify, mostly under pKd 3.1 to 4

Chain of Inadl_3, Q8NI35 (Q8NI35 359-469): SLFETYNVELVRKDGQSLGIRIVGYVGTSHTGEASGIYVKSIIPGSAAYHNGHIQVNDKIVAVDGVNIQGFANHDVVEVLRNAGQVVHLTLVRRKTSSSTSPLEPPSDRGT

Row | pKd | Binder
15 | below the threshold | B1
16 | below the threshold | B2

What follows are binders tested against IL16_4, Q14005 (assay: holdup assay). Settings: plain residues with an end cap or a label only (N-terminal biotin on a linker: ado-ado).
Set-up: key: below the threshold = too weak to quantify, mostly under pKd 3.1 to 4

Chain of IL16_4, Q14005 (Q14005 1229-1329): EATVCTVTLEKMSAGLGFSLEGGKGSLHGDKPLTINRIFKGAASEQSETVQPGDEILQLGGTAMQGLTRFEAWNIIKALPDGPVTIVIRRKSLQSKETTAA

Row | pKd | Binder
17 | below the threshold | B1
18 | below the threshold | B2

Each binder was assayed against TJP2_1, Q9UDY2 (assay: holdup assay). Settings: plain residues with an end cap or a label only (N-terminal biotin on a linker: ado-ado).
Set-up: key: below the threshold = too weak to quantify, mostly under pKd 3.1 to 4

Chain of TJP2_1, Q9UDY2 (Q9UDY2 24-128): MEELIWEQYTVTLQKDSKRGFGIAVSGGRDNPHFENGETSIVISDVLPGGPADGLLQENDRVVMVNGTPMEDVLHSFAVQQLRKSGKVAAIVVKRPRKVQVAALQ

Row | pKd | Binder
19 | below the threshold | B1
20 | below the threshold | B2

The binders below were run against T4, MPDZ_12, O75970 (assay: holdup assay). Settings: plain residues with an end cap or a label only (N-terminal biotin on a linker: ado-ado).
Set-up: key: below the threshold = too weak to quantify, mostly under pKd 3.1 to 4

Row | pKd | Binder
21 | below the threshold | B1
22 | below the threshold | B2

These binders were tested against T5, CARD11, Q9BXL7 (assay: holdup assay). Settings: plain residues with an end cap or a label only (N-terminal biotin on a linker: ado-ado).
Set-up: key: below the threshold = too weak to quantify, mostly under pKd 3.1 to 4

Row | pKd | Binder
23 | below the threshold | B1
24 | below the threshold | B2

Each binder was assayed against MAGI2_2, Q86UL8 (assay: holdup assay). Settings: plain residues with an end cap or a label only (N-terminal biotin on a linker: ado-ado).
Set-up: key: below the threshold = too weak to quantify, mostly under pKd 3.1 to 4

Chain of MAGI2_2, Q86UL8 (Q86UL8 410-522): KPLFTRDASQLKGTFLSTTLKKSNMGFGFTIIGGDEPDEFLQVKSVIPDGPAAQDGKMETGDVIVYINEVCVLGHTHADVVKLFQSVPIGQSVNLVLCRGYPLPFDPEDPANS

Row | pKd | Binder
25 | below the threshold | B1
26 | below the threshold | B2

The binders below were run against SCRIB_1, Q14160 (assay: holdup assay). Settings: plain residues with an end cap or a label only (N-terminal biotin on a linker: ado-ado).
Set-up: key: below the threshold = too weak to quantify, mostly under pKd 3.1 to 4

Chain of SCRIB_1, Q14160 (Q14160 718-814): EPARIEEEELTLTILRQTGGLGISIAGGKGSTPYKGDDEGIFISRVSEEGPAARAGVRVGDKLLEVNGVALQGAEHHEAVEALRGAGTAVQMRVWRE

Row | pKd | Binder
27 | below the threshold | B1
28 | 4.46 | B2

These binders were tested against Inadl_9, Q8NI35 (assay: holdup assay). Settings: plain residues with an end cap or a label only (N-terminal biotin on a linker: ado-ado).
Set-up: key: below the threshold = too weak to quantify, mostly under pKd 3.1 to 4

Chain of Inadl_9, Q8NI35 (Q8NI35 1530-1615): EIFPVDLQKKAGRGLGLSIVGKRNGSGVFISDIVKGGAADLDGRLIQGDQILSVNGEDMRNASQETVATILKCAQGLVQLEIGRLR

Row | pKd | Binder
29 | 3.51 | B1
30 | below the threshold | B2

Each binder was assayed against GRIP2_6, Q9C0E4 (assay: holdup assay). Settings: plain residues with an end cap or a label only (N-terminal biotin on a linker: ado-ado).
Set-up: key: below the threshold = too weak to quantify, mostly under pKd 3.1 to 4

Chain of GRIP2_6, Q9C0E4 (Q9C0E4 648-740): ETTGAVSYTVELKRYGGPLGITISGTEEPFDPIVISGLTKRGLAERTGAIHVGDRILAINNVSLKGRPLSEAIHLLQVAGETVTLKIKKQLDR

Row | pKd | Binder
31 | below the threshold | B1
32 | below the threshold | B2

What follows are binders tested against DLG4_3, P78352 (assay: holdup assay). Settings: plain residues with an end cap or a label only (N-terminal biotin on a linker: ado-ado).
Set-up: key: below the threshold = too weak to quantify, mostly under pKd 3.1 to 4

Chain of DLG4_3, P78352 (P78352 306-403): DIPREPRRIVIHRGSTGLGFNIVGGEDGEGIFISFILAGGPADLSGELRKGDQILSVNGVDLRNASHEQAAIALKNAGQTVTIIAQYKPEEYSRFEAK

Row | pKd | Binder
33 | below the threshold | B1
34 | below the threshold | B2

What follows are binders tested against T6, NHERF3_4, Q5T2W1 (assay: holdup assay). Settings: plain residues with an end cap or a label only (N-terminal biotin on a linker: ado-ado).
Set-up: key: below the threshold = too weak to quantify, mostly under pKd 3.1 to 4

Row | pKd | Binder
35 | below the threshold | B1
36 | below the threshold | B2

These binders were tested against GRIP2_4, Q9C0E4 (assay: holdup assay). Settings: plain residues with an end cap or a label only (N-terminal biotin on a linker: ado-ado).
Set-up: key: below the threshold = too weak to quantify, mostly under pKd 3.1 to 4

Chain of GRIP2_4, Q9C0E4 (Q9C0E4 446-548): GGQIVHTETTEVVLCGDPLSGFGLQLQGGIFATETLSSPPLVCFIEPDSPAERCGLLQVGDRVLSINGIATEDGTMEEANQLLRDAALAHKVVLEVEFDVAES

Row | pKd | Binder
37 | below the threshold | B1
38 | below the threshold | B2

Each binder was assayed against PARD3_3, Q8TEW0 (assay: holdup assay). Settings: plain residues with an end cap or a label only (N-terminal biotin on a linker: ado-ado).
Set-up: key: below the threshold = too weak to quantify, mostly under pKd 3.1 to 4

Chain of PARD3_3, Q8TEW0 (Q8TEW0 582-685): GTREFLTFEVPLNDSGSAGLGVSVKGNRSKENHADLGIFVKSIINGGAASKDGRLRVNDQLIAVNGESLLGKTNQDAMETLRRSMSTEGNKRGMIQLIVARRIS

Row | pKd | Binder
39 | below the threshold | B1
40 | 3.64 | B2

What follows are binders tested against GRASP, Q7Z6J2 (assay: holdup assay). Settings: plain residues with an end cap or a label only (N-terminal biotin on a linker: ado-ado).
Set-up: key: below the threshold = too weak to quantify, mostly under pKd 3.1 to 4

Chain of GRASP, Q7Z6J2 (Q7Z6J2 96-193): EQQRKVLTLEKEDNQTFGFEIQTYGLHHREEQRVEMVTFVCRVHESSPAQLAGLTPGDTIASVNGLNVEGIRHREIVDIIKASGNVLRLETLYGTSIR

Row | pKd | Binder
41 | below the threshold | B1
42 | below the threshold | B2

Each binder was assayed against HTRA2, O43464 (assay: holdup assay). Settings: plain residues with an end cap or a label only (N-terminal biotin on a linker: ado-ado).
Set-up: key: below the threshold = too weak to quantify, mostly under pKd 3.1 to 4

Chain of HTRA2, O43464 (O43464 355-458): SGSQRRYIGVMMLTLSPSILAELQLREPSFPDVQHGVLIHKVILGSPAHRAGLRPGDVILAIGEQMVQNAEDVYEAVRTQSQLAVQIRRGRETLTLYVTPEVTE

Row | pKd | Binder
43 | below the threshold | B1
44 | below the threshold | B2

These binders were tested against MAGI1_1, Q96QZ7 (assay: holdup assay). Settings: plain residues with an end cap or a label only (N-terminal biotin on a linker: ado-ado).
Set-up: key: below the threshold = too weak to quantify, mostly under pKd 3.1 to 4

Chain of MAGI1_1, Q96QZ7 (Q96QZ7 1-106): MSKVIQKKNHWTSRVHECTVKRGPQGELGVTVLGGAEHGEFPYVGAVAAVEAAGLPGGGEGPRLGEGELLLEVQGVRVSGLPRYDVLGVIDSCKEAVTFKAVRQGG

Row | pKd | Binder
45 | below the threshold | B1
46 | below the threshold | B2

The binders below were run against T7, LNX2_3, Q8N448 (assay: holdup assay). Settings: plain residues with an end cap or a label only (N-terminal biotin on a linker: ado-ado).
Set-up: key: below the threshold = too weak to quantify, mostly under pKd 3.1 to 4

Row | pKd | Binder
47 | below the threshold | B1
48 | below the threshold | B2

The binders below were run against NHERF2_2, Q15599 (assay: holdup assay). Settings: plain residues with an end cap or a label only (N-terminal biotin on a linker: ado-ado).
Set-up: key: below the threshold = too weak to quantify, mostly under pKd 3.1 to 4

Chain of NHERF2_2, Q15599 (Q15599 142-238): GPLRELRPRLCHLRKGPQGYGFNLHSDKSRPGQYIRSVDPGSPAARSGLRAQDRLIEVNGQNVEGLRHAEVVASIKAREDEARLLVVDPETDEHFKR

Row | pKd | Binder
49 | below the threshold | B1
50 | 4.83 | B2

What follows are binders tested against T8, RAPGEF6, Q8TEU7 (assay: holdup assay). Settings: plain residues with an end cap or a label only (N-terminal biotin on a linker: ado-ado).
Set-up: key: below the threshold = too weak to quantify, mostly under pKd 3.1 to 4

Row | pKd | Binder
51 | below the threshold | B1
52 | below the threshold | B2

These binders were tested against T9, PDZD2_2, O15018 (assay: holdup assay). Settings: plain residues with an end cap or a label only (N-terminal biotin on a linker: ado-ado).
Set-up: key: below the threshold = too weak to quantify, mostly under pKd 3.1 to 4

Row | pKd | Binder
53 | 5.04 | B1
54 | 3.72 | B2

These binders were tested against NHERF4_1, Q86UT5-2 (assay: holdup assay). Settings: plain residues with an end cap or a label only (N-terminal biotin on a linker: ado-ado).
Set-up: key: below the threshold = too weak to quantify, mostly under pKd 3.1 to 4

Chain of NHERF4_1, Q86UT5-2 (Q86UT5 other isoform, or with tags, fused parts or gaps): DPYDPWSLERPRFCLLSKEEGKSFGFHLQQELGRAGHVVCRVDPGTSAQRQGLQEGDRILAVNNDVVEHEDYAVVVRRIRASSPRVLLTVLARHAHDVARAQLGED

Row | pKd | Binder
55 | below the threshold | B1
56 | 3.9 | B2

Each binder was assayed against SNX27, Q96L92 (assay: holdup assay). Settings: plain residues with an end cap or a label only (N-terminal biotin on a linker: ado-ado).
Set-up: key: below the threshold = too weak to quantify, mostly under pKd 3.1 to 4

Row | pKd | Binder
57 | 3.62 | B1
58 | 5.22 | B2
